Results as given in paper doi:10.1101/2020.03.05.978833.
pKd: −log10 of the molar value.

Test system: FasR wild-type (His6, EMSA) (Mycobacterium tuberculosis H37Rv)
Assay: EMSA

PfasMT promoter fragment (398 bp)
pKd: 7.08
